Laboratory results taken from article doi:10.1101/340026.
Like-named read-outs stand apart in the source and are kept apart here.

B1: dimeric S. pombe Alp14 TOG array (residues 1-690) (domain or fragment)
chain: MSQDQEEDYSKLPLESRIVHKVWKVRLSAYEECSKSFSLSADGSDNCFELWNNQSELWKSVLTDSNVAAQEAGTAAFVAYCRFSDPSHLLKAREISVLSISEKCLTSPRAGTRENALEALMLLVEADSAAPVIESIIPSLSARSPKVIASNVAAIASLVEQFGAKVIPSKMIIPHISNLFGHADKNVRKEASRLTVNIYRWTGDPLKDLLFKDLRPVQTKELESLFAELPTEPPKQTRFLKSQQPTSEPNVETQVEEQPALENEESEPEPSDDQFDLVEEVDVLPNVDPNLETLMASSKWKDRKEALDKLLPVLSQPKIKDNDFFNLVAILTKSVSKDANIMVVINAAHCIQAMAKGLRSNFSKYASTSINALLERSKEKKANVIESLSSAMDAVLATSSLDDLAELIASFAGNKNPQIKSSCFSLFSRSFSNMTSLPSKFTVDTCAKACVPGVSDTFEPVRSAAAEALGVLMKLVGERAINQYLSPLDDIRKSKIRSFYETATVKAKAPTKKSKVKPSKQEESKVVVPSNAKAVKKSVVPSSPVVPSPRKATNKSLSMDVSKGNAFENGPLLPRPTTRPVSRGLSRGTSSSLQQKVKASTPLNSGALNETVQNLKNMELDDPAPQPAKHSRVDRYEHPKVLEDNDSTISSLESLKRENEELREQLKVEHEENISMQKQLSELKGELNTL
B2: monomeric S. pombe Alp14 TOG1-TOG2 array (residues 1-510) (domain or fragment)
chain: MSQDQEEDYSKLPLESRIVHKVWKVRLSAYEECSKSFSLSADGSDNCFELWNNQSELWKSVLTDSNVAAQEAGTAAFVAYCRFSDPSHLLKAREISVLSISEKCLTSPRAGTRENALEALMLLVEADSAAPVIESIIPSLSARSPKVIASNVAAIASLVEQFGAKVIPSKMIIPHISNLFGHADKNVRKEASRLTVNIYRWTGDPLKDLLFKDLRPVQTKELESLFAELPTEPPKQTRFLKSQQPTSEPNVETQVEEQPALENEESEPEPSDDQFDLVEEVDVLPNVDPNLETLMASSKWKDRKEALDKLLPVLSQPKIKDNDFFNLVAILTKSVSKDANIMVVINAAHCIQAMAKGLRSNFSKYASTSINALLERSKEKKANVIESLSSAMDAVLATSSLDDLAELIASFAGNKNPQIKSSCFSLFSRSFSNMTSLPSKFTVDTCAKACVPGVSDTFEPVRSAAAEALGVLMKLVGERAINQYLSPLDDIRKSKIRSFYETATVKAKAP
B3: isolated TOG1 (residues 1-270) (domain or fragment)
chain: MSQDQEEDYSKLPLESRIVHKVWKVRLSAYEECSKSFSLSADGSDNCFELWNNQSELWKSVLTDSNVAAQEAGTAAFVAYCRFSDPSHLLKAREISVLSISEKCLTSPRAGTRENALEALMLLVEADSAAPVIESIIPSLSARSPKVIASNVAAIASLVEQFGAKVIPSKMIIPHISNLFGHADKNVRKEASRLTVNIYRWTGDPLKDLLFKDLRPVQTKELESLFAELPTEPPKQTRFLKSQQPTSEPNVETQVEEQPALENEESEPEP
B4: isolated TOG2 (residues 320-510) (domain or fragment)
chain: KDNDFFNLVAILTKSVSKDANIMVVINAAHCIQAMAKGLRSNFSKYASTSINALLERSKEKKANVIESLSSAMDAVLATSSLDDLAELIASFAGNKNPQIKSSCFSLFSRSFSNMTSLPSKFTVDTCAKACVPGVSDTFEPVRSAAAEALGVLMKLVGERAINQYLSPLDDIRKSKIRSFYETATVKAKAP

Columns and labels:
[1] = target: soluble porcine αβ-tubulin (porcine) (UniProt P02550); test: ITC
[2] = target: soluble porcine αβ-tubulin (porcine) (UniProt P02550); test: SEC + SEC-MALS
[3] = target: soluble porcine αβ-tubulin (porcine) (UniProt P02550); test: SEC + SEC-MALS; remark: listed apart in the source
[4] = target: αβ-tubulin:DRP complex (1:1 molar ratio) (porcine) (UniProt P02550); test: ITC
[5] = target: αβ-tubulin:DRP complex (1:1 molar ratio) (porcine) (UniProt P02550); test: ITC; remark: listed apart in the source

Molecule | Kd [1] | stoichiometry N [2] | stoichiometry N [3] | Kd [4] | Kd [5]
designer ankyrin repeat protein, Darpin-D1 (DRP) (designed binder) | 149 nM | 1 |  |  | 
DRP with the N-terminal ankyrin repeat removed (DRPΔN) (designed binder) | 461 nM |  |  |  | 
B1 |  | 4 | 4 |  | 
B2 |  | 2 | 2 |  | 
B3 |  |  |  | 70 nM | 1500 nM
B4 |  |  |  | 173 nM | 3250 nM
